This is an account of results in patent US20030170849.

The target of series [1] is T1, C4α peptide (SEQ ID NO:23), modeled on tyrosine sulfation sites in the α chain of the fourth component of complement.
T1 chain: EANEDYEDYEYDELPAC

Series [2] concerns the target T2, HCII peptide (SEQ ID NO:24), modeled on the tyrosine sulfation site in heparin cofactor II.
T2 chain: EGEEDDDYLDLEKIFC

B1: Human TPST-1-HPC4 fusion protein (protein)
chain: MEDQVDPRLIDGKDPVGKLKQNLLLACLVISSVTVFYLGQHAMECHHRIEERSQPVKLESTRTTVRTGLDLKANKTFAYHKDMPLIFIGGVPRSGTTLMRAMLDAHPDIRCGEETRVIPRILALKQMWSRSSKEKIRLDEAGVTDEVLDSAMQAFLLEIIVKHGEPAPYLCNKDPFALKSLTYLSRLFPNAKFLLMVRDGRASVHSMISRKVTIAGFDLNSYRDCLTKWNRAIETMYNQCMEVGYKKCMLVHYEQLVLHPERWMRTLLKFLQIPWNHSVLHHEEMIGKAGGVSLSKVERSTDQVIKPVNVGALSKWVGKIPPDVLQDMAVIAPMLAKLGYDPYANPPNYGKPDPKIIENTRRVYKGEFQLPDFLKEKPQTEQVE
As to B1, the entries for the “specific activity of TPST-1 extracts relative to TPST-2 extracts assayed in parallel” value in series [1] and in series [2] were 9-fold higher using the C4α peptide and 21-fold higher using the HCII peptide as substrate, respectively.
